Reference: patent US20120220522A1

Target: insulin receptor (IR), B-isoform (UniProt P06213)
Test: relative binding affinity to insulin receptor, displacement of 125I-human insulin

relative activity (relative binding affinity): < 0.5%
Substance: ester insulin lispro folded (2) (ligand)
